Laboratory results reported in paper PMC5821319.

B1: MeV-H genotype A (measles virus envelope hemagglutinin protein): N200D (protein)
parent chain: MSPQRDRINAFYKDNPHPKGSRIVINREHLMIDRPYVLLAVLFVMFLSLIGLLAIAGIRLHRAAIYTAEIHKSLSTNLDVTNSIEHQVKDVLTPLFKIIGDEVGLRTPQRFTDLVKLISDKIKFLNPDREYDFRDLTWCINPPERIKLDYDQYCADVAAEELMNALVNSTLLETRTTNQFLAVSKGNCSGPTTIRGQFSNMSLSLLDLYLGRGYNVSSIVTMTSQGMYGGTYLVEKPNLSSKRSELSQLSMYRVFEVGVIRNPGLGAPVFHMTNYLEQPVSNDLSNCMVALGELKLAALCHGEDSITIPYQGSGKGVSFQLVKLGVWKSPTDMQSWVPLSTDDPVIDRLYLSSHRGVIADNQAKWAVPTTRTDDKLRMETCFQQACKGKIQALCENPEWAPLKDNRIPSYGVLSVDLSLTVELKIKIASGFGPLITHGSGMDLYKSNHNNVYWLTIPPMKNLALGVINTLEWIPRFKVSPYLFTVPIKEAGEDCHAPTYLPAEVDGDVKLSSNLVILPGQDLQYVLATYDTSRVEHAVVYYVYSPSRSFSYFYPFRLPIKGVPIELQVECFTWDQKLWCRHFCVLADSESGGHITHSGMVGMGVSCTVTREDGTNRR
B2: MeV-H genotype A (measles virus envelope hemagglutinin protein): D416N (protein)
parent chain: MSPQRDRINAFYKDNPHPKGSRIVINREHLMIDRPYVLLAVLFVMFLSLIGLLAIAGIRLHRAAIYTAEIHKSLSTNLDVTNSIEHQVKDVLTPLFKIIGDEVGLRTPQRFTDLVKLISDKIKFLNPDREYDFRDLTWCINPPERIKLDYDQYCADVAAEELMNALVNSTLLETRTTNQFLAVSKGNCSGPTTIRGQFSNMSLSLLDLYLGRGYNVSSIVTMTSQGMYGGTYLVEKPNLSSKRSELSQLSMYRVFEVGVIRNPGLGAPVFHMTNYLEQPVSNDLSNCMVALGELKLAALCHGEDSITIPYQGSGKGVSFQLVKLGVWKSPTDMQSWVPLSTDDPVIDRLYLSSHRGVIADNQAKWAVPTTRTDDKLRMETCFQQACKGKIQALCENPEWAPLKDNRIPSYGVLSVDLSLTVELKIKIASGFGPLITHGSGMDLYKSNHNNVYWLTIPPMKNLALGVINTLEWIPRFKVSPYLFTVPIKEAGEDCHAPTYLPAEVDGDVKLSSNLVILPGQDLQYVLATYDTSRVEHAVVYYVYSPSRSFSYFYPFRLPIKGVPIELQVECFTWDQKLWCRHFCVLADSESGGHITHSGMVGMGVSCTVTREDGTNRR

Key:
[1] = Western blot of transfected Vero cell lysates (total); details: control: unmutated MeV-H genotype A
[2] = cell surface flow cytometry, mAb BH026, Expi293; details: control: unmutated MeV-H genotype A

Protein	expression_or_secretion ([1]; glycan lost)	expression_or_secretion ([2]; glycan lost)	expression_or_secretion ([1]; glycan gained)	expression_or_secretion ([2]; glycan gained)
B1	decreases	decreases	–	–
B2	–	–	no change	no change
